From the DeepSol protein solubility set

assay: soluble on expression in E. coli; label from the status in PepcDB or PDB records

Sequence	soluble on expression in E. coli
MSLTRRSDTSLRAALIIQNWYRGYKARLKARQHYALTIFQSIEYADEQGQMQLSTFFSFMLENYTHIHKEELELRNQSLESEQDMRDRWDYVDSIDVPDSYNGPRLQFPLTCTDIDLLLEAFKEQQILHAHYVLEVLFETKKVLKQMPNFTHIQTSPSKEVTICGDLHGKLDDLFLIFYKNGLPSERNPYVFNGDFVDRGKNSIEILMILCVSFLVYPNDLHLNRGNHEDFMMNLRYGFTKEILHKYKLHGKRILQILEEFYAWLPIGTIVDNEILVIHGGISETTDLNLLHRVERNKMKSVLIPPTETNRDHDTDSKHNKVGVTFNAHGRIKTNGSPTEHLTEHEWEQIIDILWSDPRGKNGCFPNTCRGGGCYFGPDVTSKILNKYQLKMLIRSHECKPEGYEICHDGKVVTIFSASNYYEEGSNRGAYIKLCSGTTPRFFQYQVTKATCFQPLREGHHHHHH	not soluble
MGSDKIHHHHHHMVDCDRIDRLIAAVPPALALRAGLDLGIFTRLGGDAATADSLGAALKVEPDRLSRLLYALASIDLLEVKDGQFRNGAEASAFLDASKPTYRGGDHALLRELWGADLLTAESLRQNRPAALHDFSEAGPEAAAAFSRMLAPGGVIFGRHLAREIDLSAIGSVIDIGGGAGTILVGLRERRRQIAATLMELPTVAAVAPAILSEYGADDVIVEEGDITVAPSIGRHDLAILKAVVQVLPPDQARNAILNAARCLTPGGEIAIAGWGVVDDDRLGPSEGVFLNLTFLNLYRHGESYTEGQYRAWMTEAGFRNISRSRLTDGTALFRGRLTD	not soluble
AHHHHHHGSPKIEPFEKYTERYEEWFERNKFAYLSELNALKSLLPTRECVEVGIGSGRFAAPLGIKMGVEPSKKMAEIARKRGIRVIEGVAENLPFEDNSLDCILMVTTICFVDDPEKAIKEAYRVLKPGGYIVIGFVDKESLIGREYEKRKDKSVFYRDARFFSAREIMELLERNGFKIDGVVQTLFKKLDEIRDVEPVEEGYGRGSFVVIRAKKVV	soluble
RGRLKVFLGAAPGVGKTYAMLQAAHAQLRQGVRVMAGVVETHGRAETEALLNGLPQQPLLRTEYRGMTLEEMDLDALLKAAPSLVLVDELAHTNAPGSRHTKRWQDIQELLAAGIDVYTTVNVQHLESLNDQVRGITGVQVRETLPDWVLQEAFDLVLIDLPPRELLERLRDGKVYVPEQARAAIDAFFTQTNLTALREMAMQTAAAQVDNDLAQGYRQLGQSAP	soluble
SNAAQQVQQPVAQQQVQQPAQQNTNTANAGGNQNQAAPVQNQPVAQPTDIDGTYTGQDDGDRITLVVTGTTGTWTELESDGDQKVKQVTFDSANQRMIIGDDVKIYTVNGNQIVVDDMDRDPSDQIVLTK	soluble
MSLTVVLIVDDHHLIRAGAKNLLEGAFSGMRVEGAETVSDALAFLEADNTVDLILLDVNLPDAEAIDGLVRLKRFDPSNAVALISGETDHELIRAALEAGADGFIPKSADPQVLIHAVSLILEGEIFLPRSYLQGGRMAEVATPLDSSERPEQNLTPRQRDVFELMCKGLANKEIARLLDLSESTVKSHVSAIFKQIGTTSRSKTIAIFRQEGVALPSASEDEGHHHHHH	soluble
MHDTEKSDSGIVAEKPTNKAGLLAAEWAEPRPGTKGNAEQQRMHRTQGRARMTQSLDRVRTAARLRKKDRFTALFHHINVDTLRAAFFALRRKAAPGVDGMTWEDYEEDLEPRLADLHKRVQRGAYRPQPSRRTYIPKADGKQRPLAIAALEDKIVQGANRHRAQRHLRRRLLWLFLRVSARQRTTAAALEHHHHHH	soluble
VTDHVREADDANIDDLLGDLGGTARAERAKLVEWLLEQGITPDEIRATNPPLLLATRHLVGDDGTYVSAREISENYGVDLELLQRVQRAVGLARVDDPDAVVHMRADGEAAARAQRFVELGLNPDQVVLVVRVLAEGLSHAAEAMRYTALEAIMRPGATELDIAKGSQALVSQIVPLLGPMIQDMLFMQLRHMMETEAVNAGERAAGKPLPGARQVTVAFADLVGFTQLGEVVSAEELGHLAGRLAGLARDLTAPPVWFIKTIGDAVMLVCPDPAPLLDTVLKLVEVVDTDNNFPRLRAGVASGMAVSRAGDWFGSPVNVASRVTGVARPGAVLVADSVREALGDAPEADGFQWSFAGPRRLRGIRGDVRLFRVRRGATRTGSGGAAQDDDLAGSSP	soluble
